# ± gives the uncertainty stated by the source.
# Assay: amyloid nucleation score (Sup35N fusion, yeast selection) (log enrichment); library NNK2; higher = more nucleation; inactive = no reads after selection
# Outline: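 The nucleation score is a DiMSum log enrichment of output over input reads, centred on the mode score of non-aggregating sequences. Sequences under 100 input reads were excluded, and reads came from Illumina sequencing of plasmid inserts. Psi-negative yeast expressing Sup35N fused to peptides of 20 random codons were induced with 100 μM copper sulfate for 24 hours and grown 7 days at 30°C on medium lacking adenine and uracil. Random libraries had three technical output replicates.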
row,Substance,amyloid nucleation score
1,DVLVSILITPRCHHA,inactive
2,DVQHFIWCCNATVTYPLLVL,1.27 ± 0.22
3,DVSGISDARMGKPSQWYGWY,0.182 ± 0.38
4,DVVKSVPQTPL,0.851 ± 0.28
5,DWCYYGG,inactive
6,DWPRLLNFWRY,-0.284 ± 1.1
7,DWTTAFSTF,-0.012 ± 0.41
8,DWVFMRKCSPCWWYYIHLMS,-0.468 ± 0.64
9,DWWERGRVGSGCQSLGVTLH,0.923 ± 0.81
10,DWWSDDSRLGNLLRFSKRSF,-0.636 ± 0.76
11,DYCMFFGVTRISSLH,3.95 ± 0.073
12,DYFFPWENSGCIRRSLTVG,-1.35 ± 0.41
13,DYGLVCY,0.277 ± 0.22
14,DYLSIFDYHDMMGQNFL,-0.151 ± 0.49
15,DYMTGV,inactive
16,DYPSKKGVVPPRLGISDKNV,2.86 ± 0.049
17,DYRMVYSCCMLGREGWRNTW,5.606 ± 0.035
18,ECFTMSRK,-1.28 ± 0.37
19,ECGDRIL,0.536 ± 0.42
20,ECHANASFFLCRGAERSACG,0.783 ± 0.58
21,ECLTG,-1.04 ± 0.44
22,ECMAWGIFCGGSSGIFCLNQ,inactive
23,ECSFVMKY,3.41 ± 0.074
24,EDHSGF,-1.15 ± 0.28
25,EDIGSVMGVSRAFCWQRAIC,-0.666 ± 0.79
26,EDLWWVQLSNLKDSVDEYCR,0.007 ± 0.21

row,Substance,amyloid nucleation score
1,EDSPPFWGVVWPFTRNNDRK,1.11 ± 0.52
2,EDVDICRHFYRGVVNNGYQR,0.328 ± 0.57
3,EELKYYSISVMLRGRHALLI,-0.894 ± 0.56
4,EEREFSAASPEAMELR,inactive
5,EESGGYC,-0.893 ± 0.25
6,EESYLSHGL,1.22 ± 0.61
7,EETVLIFLCYMAGRDLYKVN,3.21 ± 0.096
8,EEYFDWSMKCKLIYINRVPL,-0.358 ± 1
9,EFDDYSFICRILSALFES,-0.153 ± 1.1
10,EFIDLVD,inactive
11,EFLRNGLFKEVAS,0.202 ± 0.64
12,EFRWGFRGVSYLKCTC,1.2 ± 0.15
13,EFVLKSLTNLTEIKYAVSLE,2.09 ± 0.099
14,EGDMLILEF,-0.474 ± 1
15,EGFLRIVKVVTTIWWTGLFC,-1.23 ± 1
16,EGIILFRKDRELTGGRLTNV,-0.145 ± 1.1
17,EGYAGVVQMALFYSWANIRL,0.194 ± 0.62
18,EHLCPYF,0.667 ± 0.46
19,EHVFMSAHFLLNSQRKKN,-1.9 ± 0.75
20,EICLHLQAYAIKQCGLLGTP,0.407 ± 0.26
21,EIWMSLSLNAEISYVYYSQS,-0.658 ± 0.28
22,EKAGGPWLDHNRRQCQCEVA,0.634 ± 0.45
23,EKGNVGSQANTLVRCSGLTW,1.17 ± 0.21
24,EKICRWHTDRGAFN,inactive
25,EKTFRFADYLMCPASSRSSV,-0.082 ± 0.4
26,EKVSFASFMS,-1.31 ± 0.78

row,Substance,amyloid nucleation score
1,ELFQIAVTRTKFLLVQSSYS,1.27 ± 0.18
2,ELLGG,-0.343 ± 1.1
3,ELMVTVVDHCTFVVTRLCGE,7.184 ± 0.064
4,ELNLNS,0.695 ± 0.36
5,ELNMRAYRKMSKGSYSKNSG,-0.462 ± 0.76
6,ELRSLAGIVSWLSLRYPPTE,2.42 ± 0.23
7,ELSRAGYEWCLGSHTSLVSS,0.836 ± 0.32
8,ELTTTTTYVRKVFCLYFS,8.422 ± 0.047
9,EMLFWVVGTMDVDWMPG,0.508 ± 0.57
10,EMLYTSFILSLWNNLDFILS,-0.452 ± 0.63
11,EMVIGMFKCTLISSIVLKTC,0.484 ± 0.23
12,ENATFLATCI,-0.217 ± 0.79
13,ENCHFLGWANNGVLKCSFT,-0.153 ± 0.63
14,ENLSQQMFWFKYAKVWGNVH,-0.724 ± 0.39
15,EPNIGSVP,-0.171 ± 0.55
16,EQYPNKPVRCEVRATATWGP,0.245 ± 0.27
17,ERGSYLRESRYIVFFNLLIL,inactive
18,ERNCISYHKGIFDNNEC,inactive
19,ERNSWISLIQTF,-0.693 ± 0.39
20,ERSIARSFRLAADFCSYSRR,inactive
21,ESDLVLGRVR,0.69 ± 0.49
22,ESFARFIAM,-0.033 ± 0.55
23,ESLMKSYVLSAYMCGPIGGR,1.03 ± 0.37
24,ESSFLLNHHT,-0.142 ± 0.79
25,ESTWSFNSLYIDLIKVWSDV,-0.889 ± 0.76
26,ETHVRMWAHFWQTTLRCHKS,1.72 ± 0.16

row,Substance,amyloid nucleation score
1,ETVFRLFFSYRGVANHVVPG,-0.408 ± 0.63
2,ETYLVFV,0.072 ± 0.79
3,ETYWWRQRLNSRLAFNWH,5.16 ± 0.098
4,EVDLRKSGLSGRVKFYLMLW,0.839 ± 0.57
5,EVLRKQIVRTRAVQVHFCLT,1.15 ± 0.15
6,EVLSRDRSSAPFAVLLAGSR,0.129 ± 0.76
7,EVSNRCRRLSTRRVHSVLVG,1.13 ± 0.25
8,EVSSGTCFGTS,0.084 ± 0.42
9,EVTWDVLAIVLTLMKKA,4.27 ± 0.083
10,EVVAISNTASICLYSNYKH,5.04 ± 0.1
11,EWSRGLCTVQLA,0.058 ± 0.65
12,EWVRWLVVLNLRSNAGNYDI,-0.953 ± 0.54
13,EYMTMDELDWWSRQCFGWAQ,1.64 ± 0.42
14,EYQLDHVY,-0.711 ± 1.1
15,EYSNFVTNEYEWIVGPTWSS,6.317 ± 0.026
16,EYTIFTDLLLYDFKWLEYVW,0.561 ± 0.62
17,EYVADHGQIADGR,0.782 ± 0.26
18,FAFKTLVWHRGVCRFPGARL,inactive
19,FAIGR,-0.077 ± 0.36
20,FARGMVRSSTGTM,-1.88 ± 0.44
21,FASCRIVSRG,inactive
22,FAWGPFA,-0.557 ± 0.37
23,FCAYVAWLSSWNIQPAKGRG,1.1 ± 0.35
24,FCFLKFCMLHRLLVFLWRQF,1.54 ± 0.11
25,FCGQKTNFNCLDETLLIR,1.09 ± 0.59
26,FCILSWGLSVRYSRVPLNYK,1.14 ± 0.18

row,Substance,amyloid nucleation score
1,FCISFRTRSDPRSHSSGAIE,0.498 ± 0.54
2,FCMADVYSGTLRNNYHTSEV,-0.986 ± 0.31
3,FCNVKLLLVGWCRVSVKKGV,2.12 ± 0.28
4,FCSGLYHVYAD,2.28 ± 0.15
5,FCSHMLARTYLKCGREDR,-0.337 ± 1
6,FCSSIVMVNSQCFVKSFSTK,6.311 ± 0.028
7,FCVIAQYAQVPMSCWGWLES,-0.191 ± 1.1
8,FCWFRLLEYFSR,-0.201 ± 0.45
9,FDAQNSWSWHRSWQNVFRKG,1.54 ± 0.22
10,FDDLLEARYSFSVKVCY,-0.947 ± 0.35
11,FDILDCDNLELGLYIFILDL,-1.14 ± 1
12,FDIPCSFVPVYHIKAFLCRM,-0.353 ± 0.79
13,FDLNSTVWIRCGGLILRLKP,0.01 ± 0.25
14,FDTGSRYFFNELRGGNCHCW,1.26 ± 0.21
15,FDVSWMARVELSIM,-0.018 ± 0.33
16,FDWISVRGTGWFCLRWWLYV,inactive
17,FEAYYWLADLNLLCYLGVRS,3.79 ± 0.052
18,FEDIFCWVY,-1.79 ± 0.76
19,FEFVYFVRSIG,-0.129 ± 0.5
20,FEGFNAMVSGLRYSSMGCFH,0.334 ± 0.25
21,FESFLTLYIIYTGAANNSWV,4.01 ± 0.087
22,FEVYKANDIEIYYAVCEMGV,-1.34 ± 0.26
23,FEYLYYIDIYLWYCEGRVAK,-0.661 ± 0.54
24,FFCFFKIYFWMRAAGTSLNR,-0.861 ± 1

# From the supplement of paper PMC12042874
